Paper PMC8510540
pKd: −log10 of the molar value.

Columns and labels:
[1] = target: soluble human FcγRIIA, biotinylated, tetramerized with streptavidin-PE (UniProt P12318); test: multiplex assay: antigen-conjugated beads stained with tetramerized receptor; details: highest antibody concentration point, log10 Ab (nM) about 1.6 (estimated); parent: est. 4.1; read off a plot
[2] = target: soluble human FcγRIIIB, biotinylated, tetramerized with streptavidin-PE (UniProt O75015); test: as above; details: highest antibody concentration point, log10 Ab (nM) about 1.6 (estimated); parent: est. 3.3; read off a plot
Chain of soluble human FcγRIIIB, biotinylated, tetramerized with streptavidin-PE (O75015 17-200): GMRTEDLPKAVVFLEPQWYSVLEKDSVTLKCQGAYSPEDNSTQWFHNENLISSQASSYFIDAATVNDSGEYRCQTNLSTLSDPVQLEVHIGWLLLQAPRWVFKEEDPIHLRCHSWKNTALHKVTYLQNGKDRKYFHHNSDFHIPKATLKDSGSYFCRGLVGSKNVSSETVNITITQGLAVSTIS

[3] = target: soluble human FcγRIIIA, biotinylated, tetramerized with streptavidin-PE (UniProt P08637); test: as above; details: highest antibody concentration point, log10 Ab (nM) about 1.6 (estimated); parent: est. 4.3; read off a plot
Chain of soluble human FcγRIIIA, biotinylated, tetramerized with streptavidin-PE (P08637 17-208): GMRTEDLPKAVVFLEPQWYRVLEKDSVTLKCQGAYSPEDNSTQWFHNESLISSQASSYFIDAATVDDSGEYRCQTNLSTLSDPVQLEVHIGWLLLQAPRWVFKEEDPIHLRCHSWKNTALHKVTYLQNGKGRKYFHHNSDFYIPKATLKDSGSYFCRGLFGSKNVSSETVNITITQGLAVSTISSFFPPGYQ

[4] = target: soluble human FcγRIIB, biotinylated, tetramerized with streptavidin-PE (UniProt P31994); test: as above; details: highest antibody concentration point, log10 Ab (nM) about 1.6 (estimated); parent: est. 3.4; read off a plot
Chain of soluble human FcγRIIB, biotinylated, tetramerized with streptavidin-PE (P31994 43-217): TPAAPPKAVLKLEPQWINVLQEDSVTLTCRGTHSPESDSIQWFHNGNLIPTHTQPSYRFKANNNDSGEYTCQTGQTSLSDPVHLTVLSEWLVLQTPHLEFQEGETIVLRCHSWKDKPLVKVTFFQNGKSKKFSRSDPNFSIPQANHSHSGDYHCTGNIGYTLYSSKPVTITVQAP

[5] = target: HIV-1_(YU-2) gp140 trimer; test: BLI (equilibrium KD)
[6] = target: HIV-1_(YU-2) gp140 trimer; test: BLI (kinetic KD, value in parentheses)

Chain of soluble human FcγRIIA, biotinylated, tetramerized with streptavidin-PE (P12318 34-217): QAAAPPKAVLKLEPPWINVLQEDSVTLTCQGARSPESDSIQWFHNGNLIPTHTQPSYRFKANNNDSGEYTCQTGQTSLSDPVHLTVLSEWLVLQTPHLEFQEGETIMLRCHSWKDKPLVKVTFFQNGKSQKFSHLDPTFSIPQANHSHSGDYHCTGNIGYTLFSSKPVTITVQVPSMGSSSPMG

Substance	response [1] [log10 MFI]	response [2] [log10 MFI]	response [3] [log10 MFI]	response [4] [log10 MFI]	pKd [5]	pKd [6]
IgG1 b12 (unmodified Fc) (from UniProt P01857) L234A; L235A	2	2	3.4	2	8.69	8.69
IgG1 b12 (unmodified Fc) (from UniProt P01857) E430G	4	3.1			9.05	8.65
IgG1 b12 (unmodified Fc) (from UniProt P01857) G236A; S267E; H268F; S324T; I332E	4.3	3.2		4.3	8.71	8.56
IgG1 b12 (unmodified Fc) (from UniProt P01857) K322A					8.53	8.59
